Results on seven molecules are retold here after publication doi:10.1101/322701 (bioRxiv, 2018).

Holding throughout (assay): BLI
For orientation: Biolayer interferometry detects binding as a change in optical thickness at a sensor tip.

Test [1] has as its target NH-GrgAΔ1-64 (Chlamydia trachomatis) (UniProt O84512).
In test [2] the target is N-terminally His-tagged GrgA, full length (Chlamydia trachomatis) (UniProt O84512).
Test [3] deals with Biotinylated NH-GrgA (Chlamydia trachomatis) (UniProt O84512).
For test [4], the target named is T1, N-terminally His-tagged GrgA, full length (Chlamydia trachomatis, UniProt O84512 1-288).
T1 sequence (looked up): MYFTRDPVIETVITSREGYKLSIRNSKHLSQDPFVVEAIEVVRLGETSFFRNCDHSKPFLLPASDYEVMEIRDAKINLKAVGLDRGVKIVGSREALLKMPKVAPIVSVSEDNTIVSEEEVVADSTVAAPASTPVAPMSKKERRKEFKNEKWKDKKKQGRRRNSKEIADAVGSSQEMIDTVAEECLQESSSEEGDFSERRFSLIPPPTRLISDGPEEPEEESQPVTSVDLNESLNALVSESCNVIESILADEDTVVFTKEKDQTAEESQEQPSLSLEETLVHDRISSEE

The target of test [5] is T2, CH-σ^66 (C. trachomatis, UniProt P18333 1-571).
T2 sequence (looked up): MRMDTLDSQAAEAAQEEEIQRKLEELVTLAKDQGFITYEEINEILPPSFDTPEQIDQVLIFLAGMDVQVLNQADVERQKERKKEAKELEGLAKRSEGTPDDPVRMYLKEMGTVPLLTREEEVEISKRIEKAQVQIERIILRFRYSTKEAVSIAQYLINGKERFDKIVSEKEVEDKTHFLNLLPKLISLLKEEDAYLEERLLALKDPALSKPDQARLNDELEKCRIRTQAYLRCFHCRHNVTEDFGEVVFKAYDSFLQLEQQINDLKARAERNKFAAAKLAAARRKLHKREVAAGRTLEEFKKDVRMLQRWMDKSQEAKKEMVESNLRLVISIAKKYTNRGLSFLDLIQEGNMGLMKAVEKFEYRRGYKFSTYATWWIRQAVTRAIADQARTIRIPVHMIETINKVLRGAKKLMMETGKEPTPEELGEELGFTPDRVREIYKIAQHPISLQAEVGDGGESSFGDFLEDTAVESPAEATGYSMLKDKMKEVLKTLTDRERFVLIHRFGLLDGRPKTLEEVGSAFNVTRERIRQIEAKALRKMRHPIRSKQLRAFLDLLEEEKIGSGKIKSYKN

For test [6], the target named is N-terminally poly-His-tagged C. trachomatis σ^28 (C. trachomatis).
Sequence of N-terminally poly-His-tagged C. trachomatis σ^28 (C. trachomatis) (B0B8K1 whole entry): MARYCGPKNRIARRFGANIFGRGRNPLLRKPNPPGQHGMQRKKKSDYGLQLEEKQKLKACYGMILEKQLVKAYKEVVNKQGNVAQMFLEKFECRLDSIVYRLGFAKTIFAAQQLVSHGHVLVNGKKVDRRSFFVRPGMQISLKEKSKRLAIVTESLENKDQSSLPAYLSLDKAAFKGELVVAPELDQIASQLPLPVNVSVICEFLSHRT

In test [1], “N-terminally strep-tagged σ^28 (natural protein)” came in with a fold decrease in ka against full length NH-GrgA of 3 fold, a fold increase in KD against full length NH-GrgA of 4.8 fold and a fold increase in kd against full length NH-GrgA of 2 fold. In addition, the fold higher KD than the NH-GrgA-CS-σ^66 interaction in test [2] stood at 32 fold.

For NH-σ^28ΔR4 (natural protein), in test [3], the fold higher KD than full length NH-σ^28 came out at 7 fold and the percent increase in ka against full length NH-σ^28 came out at 50%.

In test [3], NH-σ^28ΔR3 (natural protein) registered a fold higher KD than full length NH-σ^28 of 7 fold and a fold increase in ka against full length NH-σ^28 of 3.5 fold.

In test [3], NH-σ^28ΔR2 (natural protein) showed a fold higher KD than full length NH-σ^28 of 177 fold and a fold reduction in ka against full length NH-σ^28 of 2 fold.

As to NH-σ^28ΔNL (domain or fragment), in test [3], the fold higher KD than full length NH-σ^28 was 345 fold.

B1: CS-σ^66 (natural protein, C. trachomatis, UniProt P18333 1-571, looked up)
chain: MRMDTLDSQAAEAAQEEEIQRKLEELVTLAKDQGFITYEEINEILPPSFDTPEQIDQVLIFLAGMDVQVLNQADVERQKERKKEAKELEGLAKRSEGTPDDPVRMYLKEMGTVPLLTREEEVEISKRIEKAQVQIERIILRFRYSTKEAVSIAQYLINGKERFDKIVSEKEVEDKTHFLNLLPKLISLLKEEDAYLEERLLALKDPALSKPDQARLNDELEKCRIRTQAYLRCFHCRHNVTEDFGEVVFKAYDSFLQLEQQINDLKARAERNKFAAAKLAAARRKLHKREVAAGRTLEEFKKDVRMLQRWMDKSQEAKKEMVESNLRLVISIAKKYTNRGLSFLDLIQEGNMGLMKAVEKFEYRRGYKFSTYATWWIRQAVTRAIADQARTIRIPVHMIETINKVLRGAKKLMMETGKEPTPEELGEELGFTPDRVREIYKIAQHPISLQAEVGDGGESSFGDFLEDTAVESPAEATGYSMLKDKMKEVLKTLTDRERFVLIHRFGLLDGRPKTLEEVGSAFNVTRERIRQIEAKALRKMRHPIRSKQLRAFLDLLEEEKIGSGKIKSYKN
For B1, in test [4], the “fold higher ka than the NS-σ^28 analyte on NH-GrgA” value came out at 25 fold and the “fold increase in kd over the NS-σ^28 analyte on NH-GrgA” value worked out at 3 fold.

B2: N-terminally strep-tagged GrgA (natural protein, Chlamydia trachomatis, UniProt O84512 1-288, looked up)
chain: MYFTRDPVIETVITSREGYKLSIRNSKHLSQDPFVVEAIEVVRLGETSFFRNCDHSKPFLLPASDYEVMEIRDAKINLKAVGLDRGVKIVGSREALLKMPKVAPIVSVSEDNTIVSEEEVVADSTVAAPASTPVAPMSKKERRKEFKNEKWKDKKKQGRRRNSKEIADAVGSSQEMIDTVAEECLQESSSEEGDFSERRFSLIPPPTRLISDGPEEPEEESQPVTSVDLNESLNALVSESCNVIESILADEDTVVFTKEKDQTAEESQEQPSLSLEETLVHDRISSEE
As to B2, in test [5], the “fold higher ka than for NH-σ^28 as ligand” value is 3.7 fold and the “fold slower dissociation (kd) than from NH-σ^28” value was determined as 6 fold. This molecule displayed a fold higher KD than the CH-σ^66-NS-GrgA interaction in test [6] of 28 fold.
